Experimental findings from publication PMC10306287, “Computational design of the temperature optimum of an enzyme reaction” (Science Advances, 2023) are described below.

Series [1] has as its target T1, AHA (WT AHA α-amylase) (Pseudoalteromonas haloplanktis, UniProt P29957).
T1 construct: gene amy; mature peptide residues 25-477, signal peptide excluded, codon-optimised in pET-22b(+), E. coli NiCo21(DE3), HisTrap purified (tag not described)
Briefly: steady-state hydrolysis, 96-well spectrophotometer, nonlinear regression. In kind it is biochemical. The conditions noted are these: 25 °C, PBS, 60 nM enzyme.

Substrate in series [2]: O=[N+]([O-])c1ccc(O[C@H]2O[C@H](CO)[C@@H](O[C@H]3O[C@H](CO)[C@@H](O[C@H]4O[C@H](CO)[C@@H](O)[C@H](O)[C@H]4O)[C@H](O)[C@H]3O)[C@H](O)[C@H]2O)c(Cl)c1
Described as above. The format is biochemical, Pseudoalteromonas haloplanktis. The conditions noted are these: 25 °C, PBS, 60 nM enzyme.

Broadly, the Km is the concentration of substrate that gives half-maximal velocity. Turning to `O=[N+]([O-])c1ccc(O[C@H]2O[C@H](CO)[C@@H](O[C@H]3O[C@H](CO)[C@@H](O[C@H]4O[C@H](CO)[C@@H](O)[C@H](O)[C@H]4O)[C@H](O)[C@H]3O)[C@H](O)[C@H]2O)c(Cl)c1` [2-chloro-4-nitrophenyl-α-D-maltotrioside], in series [1], the Km is 2.24 ± 0.22 mM.

B1: AHA (WT AHA α-amylase) (Pseudoalteromonas haloplanktis) (protein)
chain: TPTTFVHLFEWNWQDVAQECEQYLGPKGYAAVQVSPPNEHITGSQWWTRYQPVSYELQSRGGNRAQFIDMVNRCSAAGVDIYVDTLINHMAAGSGTGTAGNSFGNKSFPIYSPQDFHESCTINNSDYGNDRYRVQNCELVGLADLDTASNYVQNTIAAYINDLQAIGVKGFRFDASKHVAASDIQSLMAKVNGSPVVFQEVIDQGGEAVGASEYLSTGLVTEFKYSTELGNTFRNGSLAWLSNFGEGWGFMPSSSAVVFVDNHDNQRGHGGAGNVITFEDGRLYDLANVFMLAYPYGYPKVMSSYDFHGDTDAGGPNVPVHNNGNLECFASNWKCEHRWSYIAGGVDFRNNTADNWAVTNWWDNTNNQISFGRGSSGHMAINKEDSTLTATVQTDMASGQYCNVLKGELSADAKSCSGEVITVNSDGTINLNIGAWDAMAIHKNAKLNTSSAS
notes: mature peptide residues 25-477, signal peptide excluded, codon-optimised in pET-22b(+), E. coli NiCo21(DE3), HisTrap purified (tag not described)
As usually defined, the kcat is the maximal rate divided by the concentration of active sites. As to B1, in series [2], the Km was 2.81 ± 0.11 mM and the kcat came to 106.5 ± 6.6 min⁻¹.
